These results are taken from PMC7392006, “Demethylase-independent function of JMJD2D as a novel antagonist of p53 to promote Liver Cancer initiation and progression”.

This data set has as its target p53 (recombinant, Active Motif 81091) (Homo sapiens, UniProt P04637 1-393). The experiment in a line: EMSA; no JMJD2D; 5 mM Hepes pH 7.6, 100 mM KCl, 5 mM MgCl2, 1.25 mM DTT, 0.05% NP-40, 2.25% glycerol, 1 ug poly(dI.dC); 6% polyacrylamide gel; temperature not stated. The note with it: protein: commercial; chain copies: 4; label: biotin end label; blunt. (In general: In EMSA bound probe runs differently from free probe, usually more slowly.)

p53 (recombinant, Active Motif 81091), sequence (P04637 whole entry): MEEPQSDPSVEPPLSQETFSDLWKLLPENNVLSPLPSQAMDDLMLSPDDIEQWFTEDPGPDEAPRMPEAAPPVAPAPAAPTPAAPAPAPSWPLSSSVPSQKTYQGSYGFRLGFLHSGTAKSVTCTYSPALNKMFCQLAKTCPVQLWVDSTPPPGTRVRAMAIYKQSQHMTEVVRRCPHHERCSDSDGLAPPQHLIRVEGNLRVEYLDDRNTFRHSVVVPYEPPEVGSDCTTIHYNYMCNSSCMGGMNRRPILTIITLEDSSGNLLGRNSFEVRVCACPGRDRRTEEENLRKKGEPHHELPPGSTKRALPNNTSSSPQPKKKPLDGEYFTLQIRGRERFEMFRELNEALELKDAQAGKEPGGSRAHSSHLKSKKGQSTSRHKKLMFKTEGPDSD

B1: PUMA promoter p53 element (dsDNA)
DNA 1: GCGCGCCTGCAAGTCCTGACTTGTCCGCGGCG
DNA 2: CGCCGCGGACAAGTCAGGACTTGCAGGCGCGC
Take B1: the binding result was “binds”.

B2: p21 promoter p53 element (dsDNA)
DNA 1: CTGGCCGTCAGGAACATGTCCCAACATGTTGAGCTCT
DNA 2: AGAGCTCAACATGTTGGGACATGTTCCTGACGGCCAG
In the case of B2, the binding result is “binds”.
